The text below walks through data of publication PMC7804408, “Functional cooperativity between the trigger factor chaperone and the ClpXP proteolytic complex” (Nature Communications, 2021).

To fix the notation:
B2: trigger factor (TF) (natural protein, E. coli, UniProt P0A850 1-432, looked up)
chain: MQVSVETTQGLGRRVTITIAADSIETAVKSELVNVAKKVRIDGFRKGKVPMNIVAQRYGASVRQDVLGDLMSRNFIDAIIKEKINPAGAPTYVPGEYKLGEDFTYSVEFEVYPEVELQGLEAIEVEKPIVEVTDADVDGMLDTLRKQQATWKEKDGAVEAEDRVTIDFTGSVDGEEFEGGKASDFVLAMGQGRMIPGFEDGIKGHKAGEEFTIDVTFPEEYHAENLKGKAAKFAINLKKVEERELPELTAEFIKRFGVEDGSVEGLRAEVRKNMERELKSAIRNRVKSQAIEGLVKANDIDVPAALIDSEIDVLRRQAAQRFGGNEKQALELPRELFEEQAKRRVVVGLLLGEVIRTNELKADEERVKGLIEEMASAYEDPKEVIEFYSKNKELMDNMRNVALEEQAVEAVLAKAKVTEKETTFNELMNQQA

The test “trigger factor (TF)” deals with B2. The test can be described thus: SPR; TF immobilised on a CM5 chip by amine coupling, analytes injected at 20 μL/min for 90 s; Biacore X, 22 °C; 10 mM HEPES pH 7.5, 150 mM NaCl, 3 mM EDTA, 0.005% P20; steady-state response against concentration, one-site Langmuir model; apparent Kd for ClpX. The following applies: both partners purified. For orientation: In SPR one partner is held on a chip, and binding of the other changes the refractive index at the surface.

The target of test [1] is HV-ClpX (N-terminally tagged ClpX) (E. coli, UniProt P0A6H1 1-424). Put plainly: cell-based or functional assay.
HV-ClpX (N-terminally tagged ClpX), sequence (P0A6H1 whole entry): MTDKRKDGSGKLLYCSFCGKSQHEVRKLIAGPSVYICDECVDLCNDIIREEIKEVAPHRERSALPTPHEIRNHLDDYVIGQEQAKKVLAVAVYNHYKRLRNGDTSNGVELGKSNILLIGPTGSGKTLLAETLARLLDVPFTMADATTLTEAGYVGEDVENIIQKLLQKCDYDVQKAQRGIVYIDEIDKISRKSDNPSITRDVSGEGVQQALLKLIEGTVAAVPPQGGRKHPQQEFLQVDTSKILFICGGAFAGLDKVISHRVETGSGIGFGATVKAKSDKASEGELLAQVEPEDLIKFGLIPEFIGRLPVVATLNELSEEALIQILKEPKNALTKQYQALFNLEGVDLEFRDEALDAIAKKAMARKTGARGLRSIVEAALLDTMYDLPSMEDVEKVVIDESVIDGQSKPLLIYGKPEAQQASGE

B1: zinc-binding domain (ZBD) of ClpX (domain or fragment, E. coli)
chain: TDKRKDGSGKLLYCSFCGKSQHEVRKLIAGPSVYICDECVDLCNDIIREEIKEVAPHRER
notes: Tag removal rests on the words 'purified by the same procedure as TFN'; Isotopically labelled in one NMR experiment; also called ClpX ZBD; ZBD dimer; source: E. coli BL21(DE3), purified (Ni Sepharose, gel filtration; same procedure as TFN; 100 μM ZnCl2 added before size exclusion)
As to B1, the Kd in the test with trigger factor (TF) was 12.8 µM. On to B2, for which the “clipping of HV-ClpX by bound ClpP with ATP, rate of disappearance of HV-ClpX with and without TF (Fig. 3b)” value in test [1] is > 2 fold.

B3: ClpX (enzyme)
chain: not shown
notes: E. coli ClpX unfoldase (N-terminal ZBD and C-terminal AAA+ domain); expressed from pProEXHTb ClpX; the SPR running buffer held EDTA and no nucleotide, and the oligomeric state in that assay was not measured; also called WT ClpX; full-length ClpX; source: E. coli BL21(DE3), purified the same way as TF (Ni-NTA; His-tag removed with TEV protease)
For B3, the Kd in the test with trigger factor (TF) came out at 9.3 µM.

B4: λ phage replication protein λO (natural protein, UniProt P03688 1-333, looked up)
chain: MTNTAKILNFGRGNFAGQERNVADLDDGYARLSNMLLEAYSGADLTKRQFKVLLAILRKTYGWNKPMDRITDSQLSEITKLPVKRCNEAKLELVRMNIIKQQGGMFGPNKNISEWCIPQNEGKSPKTRDKTSLKLGDCYPSKQGDTKDTITKEKRKDYSSENSGESSDQPENDLSVVKPDAAIQSGSKWGTAEDLTAAEWMFDMVKTIAPSARKPNFAGWANDIRLMRERDGRNHRDMCVLFRWACQDNFWSGNVLSPAKLRDKWTQLEINRNKQQAGVTASKPKLDLTNTDWIYGVDLKTSPHRWLTLTVSRCVGSPTTCRNSTTKSRRYSR
notes: replication protein O of phage λ
As for B4, in the test with trigger factor (TF), the Kd is 3.8 µM.
